Values quoted from earlier work, collected in patent publication US20240216555A1, “TARGETING AND TREATMENT OF CANCEROUS CELLS USING RADIOLABELED GRP78-BINDING AGENTS” (University of Kentucky Research Foundation, priority 2022, published 2024).
Where no end group is shown, it is not given here.

Key:
csGRP78 [1] = target: T1, csGRP78 (Homo sapiens, UniProt P11021); details: previously shown; cited from earlier work
csGRP78 [2] = target: T1, csGRP78; details: previously shown; cited from earlier work; remark: listed apart in the source

T1 sequence (P11021 19-654): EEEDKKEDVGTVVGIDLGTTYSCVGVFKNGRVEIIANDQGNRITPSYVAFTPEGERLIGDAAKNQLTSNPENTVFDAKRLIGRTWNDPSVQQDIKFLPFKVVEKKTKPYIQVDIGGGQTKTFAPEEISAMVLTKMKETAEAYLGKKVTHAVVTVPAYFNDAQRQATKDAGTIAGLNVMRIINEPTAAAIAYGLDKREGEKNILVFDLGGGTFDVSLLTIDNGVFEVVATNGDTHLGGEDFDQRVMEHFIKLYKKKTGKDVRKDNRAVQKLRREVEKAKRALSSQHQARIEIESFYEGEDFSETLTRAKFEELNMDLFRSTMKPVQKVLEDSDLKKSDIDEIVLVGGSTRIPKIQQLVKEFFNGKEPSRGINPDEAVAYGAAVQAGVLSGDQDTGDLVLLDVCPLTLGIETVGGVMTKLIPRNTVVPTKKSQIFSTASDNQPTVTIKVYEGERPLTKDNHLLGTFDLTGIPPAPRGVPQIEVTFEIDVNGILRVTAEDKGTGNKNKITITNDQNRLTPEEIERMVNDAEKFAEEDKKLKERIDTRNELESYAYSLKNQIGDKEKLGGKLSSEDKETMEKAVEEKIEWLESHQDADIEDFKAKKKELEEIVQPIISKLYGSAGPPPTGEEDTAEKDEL

## CTVALPGGYVRVC (also: cyclic (type not given here))
csGRP78 [1]
  binding to csGRP78: bind to csGRP78
csGRP78 [2]
  translocation to the ER: translocate to the ER
